Consider four molecules from patent publication US20210196842A1, “SITE-SPECIFIC RADIOFLUORINATION OF PEPTIDES WITH 8-[18F]-FLUOROOCTANOIC ACID CATALYZED BY LIPOIC ACID LIGASE” (THE REGENTS OF THE UNIVERSITY OF CALIFORNIA, priority 2015, published 2021).

The target of one data set is human uPAR (Homo sapiens, UniProt Q03405). The data set is described as follows: Binding of 2G10 Fabs to uPAR measured using Octet instrument. The protocol:
Measurement of 2G10-Fab-FA-LAP Affinity for uPAR: Stocks solutions were diluted to the following concentrations in 100 μL PBS: 2G10-Fab-LAP (10 μM), Lp1AΔHis (50 μM), FA (750 μM), ATP (3 mM), Mg(OAc)2 (5 mM). The resulting solution was incubated at 30° C. for 15 h and then quenched with 100 μL. 360 mM EDTA. Kinetic constants this sample, along with 2G10 and 2G10-Fab-LAP, were determined using an Octet RED384 instrument (ForteBio). Four concentrations of each Fab (500 nM, 250 nM, 100 nM and 50 nM) were tested for binding to the biotinylated antigen (human uPAR) immobilized on ForteBio streptavidin SA biosensors. All measurements were performed at room temperature in 384-well microplates and the running buffer was PBS with 0.1% (w/v) bovine serum albumin (BSA) and 0.02% (v/v) Tween 20. Biotinylated human uPAR was loaded for 180 s from a solution of 150 nM, baseline was equilibrated for 60 s, and then the Fabs were associated for 120 s followed by 300 s disassociation. Between each Fab sample, the biosensor surfaces were regenerated three times by exposing them to 10 mM glycine, pH 1.5 for 5 s followed by PBS for 5 s. Data were analyzed using a 1:1 interaction model on the ForteBio data analysis software 8.2.
(In BLI a coated tip is dipped into the sample, and binding shifts an interference pattern.)

For data set [1], the target named is T1, LAP peptide (Ac-GFEIDKVWYDLDA-OH).
T1 chain: GFEIDKVWYDLDA

Data set [2] has as its target T2, scrambled LAP peptide (Ac-EFDDWKYADVGLI).
T2 chain: EFDDWKYADVGLI

Data set [3] addresses human urokinase plasminogen activator receptor (uPAR), biotinylated (human) (UniProt Q03405). Description: BLI (Octet RED384), biotinylated human uPAR on streptavidin biosensors, Fab in solution, 1:1 model.
Data set [4] concerns the target T3, human urokinase plasminogen activator receptor (uPAR), biotinylated (human, UniProt Q03405 23-303).
T3 construct: also called human uPAR; biotinylated human uPAR
Described as above.

Sequence of human uPAR (Q03405 23-305): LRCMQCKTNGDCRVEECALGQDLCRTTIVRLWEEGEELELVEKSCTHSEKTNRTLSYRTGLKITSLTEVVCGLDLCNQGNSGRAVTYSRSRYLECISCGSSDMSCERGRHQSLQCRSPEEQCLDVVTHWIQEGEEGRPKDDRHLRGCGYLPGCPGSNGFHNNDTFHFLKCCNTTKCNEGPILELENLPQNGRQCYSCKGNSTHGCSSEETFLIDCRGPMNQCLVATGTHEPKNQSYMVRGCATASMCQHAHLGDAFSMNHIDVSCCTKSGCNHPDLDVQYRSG
Sequence of human urokinase plasminogen activator receptor (uPAR), biotinylated (human) (Q03405 23-303 limits assumed): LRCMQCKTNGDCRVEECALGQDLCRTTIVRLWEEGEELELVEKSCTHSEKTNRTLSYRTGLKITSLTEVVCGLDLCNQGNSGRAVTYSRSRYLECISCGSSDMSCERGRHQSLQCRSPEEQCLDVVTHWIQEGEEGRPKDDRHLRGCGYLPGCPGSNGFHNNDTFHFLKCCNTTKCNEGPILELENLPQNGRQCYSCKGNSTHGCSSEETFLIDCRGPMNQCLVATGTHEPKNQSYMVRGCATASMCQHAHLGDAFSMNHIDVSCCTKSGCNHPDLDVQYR

B1: 2G10-Fab-LAP: 2G10 Fab with the LAP peptide sequence inserted at the C-terminus of the heavy chain (antibody)
heavy: QVQLQQSGPGLVKPSQTLSLTCAISGDSVSSNSAAWNWIRQSPSRGLEWLGRTYYRSKWYNDYAVSVKSRIIINPDTSKNQFSLQLNSVTPEDTAVYYCARDPGGPLDDSFDIWGQGTMVTVSSASTKGPSVFPLAPSSKSTSGGTAALGCLVKDYFPEPVTVSWNSGALTSGVHTFPAVLQSSGLYSLSSVVTVPSSSLGTQTYICNVNHKPSNTKVDKKVEPKSCAAHHHHHHAAGFEIDKVWYDLDA
light: DVVMTQSPLSLPVTPGEPASISCRSSQSLLRSNGYNYLDWYLQKPGQSPQLLIYLGSIRASGVPDRFSGSGSGTDFTLRISRVEAEDVGVYYCMQALQTPFTFGQGTKLEIKRTVAAPSVFIFPPSDEQLKSGTASVVCLLNNFYPREAKVQWKVDNALQSGNSQESVTEQDSKDSTYSLSSTLTLSKADYEKHKVYACEVTHQGLSSPVTKSFNRGEC
With B1, the dissociation constant Kd with human uPAR (Octet RED384, biotinylated human uPAR on streptavidin biosensors, room temperature, 1:1 interaction model, read-out: KD (nM), dissociation constants for 2G10-Fabs with uPAR) was determined as 31 ± 2.2 nM. The “differences in binding affinity for uPAR between the Fabs” value with human uPAR (Octet, after bioconjugation with excess [19F]-FA) was “No significant differences in binding affinity”.

B2: LplA-His6 (E. coli lipoic acid ligase) (protein)
chain: MSTLRLLISDSYDPWFNLAVEECIFRQMPATQRVLFLWRNADTVVIGRAQNPWKECNTRRMEEDNVRLARRSSGGGAVFHDLGNTCFTFMAGKPEYDKTISTSIVLNALNALGVSAEASGRNDLVVKTTEGDRKVSGSAYRETKDRGFHHGTLLLNADLSRLANYLNPDKKKLAAKGITSVRSRVTNLTELLPEITHEQVCEAIREAFFAHYGERVEAEIISPDKTPDLPNFAETFARQSSWEWNFGQAPAFSHLLDERFTWGGVELHFDVEKGHITRAQVFTDSLNPAPLEALAGRLQGCLYRADMLQQECEALLVDFPEQEKELRELSTWIAGAVR
On to B2, for which, in data set [1], the Yield/% (radio-TLC conjugation yield of [18F]-FA) turned out to be 91% and the “conversion of LAP to [19F]-FA-LAP, RP-HPLC” value is listed as “complete at 30 minutes”. In data set [2], the Yield/% (radio-TLC conjugation yield of [18F]-FA) was found to be 0% and the “conjugation of FA to peptide, RP-HPLC” value is listed as “No productive reaction was observed after 60 minutes”.

B3: 2G10-Fab-LAP (Fab, V domains shown)
VH: QVQLQQSGPGLVKPSQTLSLTCAISGDSVSSNSAAWNWIRQSPSRGLEWLGRTYYRSKWYNDYAVSVKSRIIINPDTSKNQFSLQLNSVTPEDTAVYYCARDPGGPLDDSFDIWGQGTMVTVSS
VL: DVVMTQSPLSLPVTPGEPASISCRSSQSLLRSNGYNYLDWYLQKPGQSPQLLIYLGSIRASGVPDRFSGSGSGTDFTLRISRVEAEDVGVYYCMQALQTPFTFGQGTKLEIKR
In the case of B3, in data set [3], the Kd came to 31 nM.

B4: 2G10-Fab (Fab, V domains shown)
VH: QVQLQQSGPGLVKPSQTLSLTCAISGDSVSSNSAAWNWIRQSPSRGLEWLGRTYYRSKWYNDYAVSVKSRIIINPDTSKNQFSLQLNSVTPEDTAVYYCARDPGGPLDDSFDIWGQGTMVTVSS
VL: DVVMTQSPLSLPVTPGEPASISCRSSQSLLRSNGYNYLDWYLQKPGQSPQLLIYLGSIRASGVPDRFSGSGSGTDFTLRISRVEAEDVGVYYCMQALQTPFTFGQGTKLEIKR
For B4, the equilibrium dissociation constant (Kd) in data set [4] was found to be 38 nM.

The term Kd denotes the equilibrium constant for the complex coming apart.
